Measurements as given in patent US20240116985A1 (published 2024).
Starred links: 1 amine or outer side, 2 acyl side, 3 side chain; linkers in the order of their positions; H or OH if unused. Positions of bridges follow the written chain, without caps; N, C: chain ends. Non-standard residues stand in square brackets, D forms with d. Primed or numbered codes have the meaning given here. *: point of attachment. PyrS2″ = (S)-3-amino-1-((pent-4-en-1-yloxy)carbonyl)pyrrolidine-3-carboxylic acid (stapling residue), C=CCCCOC(=O)N1CC[C@@](N[*:1])(C(=O)[*:2])C1; B5(5) = 2,2-bis(4-pentenyl)glycine, 2-amino-2-(pent-4-en-1-yl)hept-6-enoic acid (stitching residue), C=CCCCC(CCCC=C)(N[*:1])C(=O)[*:2]; TfeGA = (S)-2-amino-3-((carboxymethyl)(2,2,2-trifluoroethyl)amino)propanoic acid, O=C([C@H](CN(CC(=O)[*:3])CC(F)(F)F)N[*:1])[*:2]; PyrS2 = (S)-3-amino-1-((pent-4-en-1-yloxy)carbonyl)pyrrolidine-3-carboxylic acid, C=CCCCOC(=O)N1CC[C@@](N[*:1])(C(=O)[*:2])C1; 4MePipBz = 4-((4-methylpiperazin-1-yl)methyl)benzoyl on Lys side chain, CN1CCN(Cc2ccc(C(=O)*)cc2)CC1; MeBipipAc = 1'-methyl-[1,4'-bipiperidine]-4-carbonyl on Lys side chain, CN1CCC(N2CCC(C(=O)*)CC2)CC1; 35CF3PhPr = 3-(3,5-bis(trifluoromethyl)phenyl)propanoyl, O=C(CCc1cc(C(F)(F)F)cc(C(F)(F)F)c1)*; B5(3) = 2,2-bis(4-pentenyl)glycine (stitching residue), C=CCCCC(CCCC=C)(N[*:1])C(=O)[*:2]; Me3AdamantC = 3,5,7-trimethyladamantane-1-carbonyl, CC12CC3(C)CC(C)(C1)CC(C(=O)*)(C2)C3; MeMorphBz = 4-(morpholinomethyl)benzoyl on Lys side chain, O=C(c1ccc(CN2CCOCC2)cc1)*; 22PhPr = 2,2-diphenylpropanoyl on Lys side chain, CC(C(=O)*)(c1ccccc1)c1ccccc1; Propanoyl(3-(1-naphthyl)) = O=C(CCc1cccc2ccccc12)*; Acetyl(4-Me-piperazin-1-yl) = CN1CCN(CC(=O)*)CC1; hLeu(5-Me) = CC(C)(C)CC[C@H](N)C(=O)O; Bta = N[C@@H](Cc1csc2ccccc12)C(=O)O; αAllylPro = C=CC[C@@]1(C(=O)O)CCCN1; Morpholinoacetyl = O=C(CN1CCOCC1)*; tBuAla = CC(C)(C)C[C@H](N)C(=O)O; 3Thi = N[C@@H](Cc1ccsc1)C(=O)O; Cha = N[C@@H](CC1CCCCC1)C(=O)O; AdamantC = not defined here; PyrS2(4) = not defined here; TfeGA″ = not defined here; Octanoyl = CCCCCCCC(=O)*

biological target: T1, B-cat-Halo (beta-catenin HaloTag NanoBRET construct expressed in HEK293 cells) (UniProt P35222 1-781); test: cell-based or functional assay
T1 sequence (looked up): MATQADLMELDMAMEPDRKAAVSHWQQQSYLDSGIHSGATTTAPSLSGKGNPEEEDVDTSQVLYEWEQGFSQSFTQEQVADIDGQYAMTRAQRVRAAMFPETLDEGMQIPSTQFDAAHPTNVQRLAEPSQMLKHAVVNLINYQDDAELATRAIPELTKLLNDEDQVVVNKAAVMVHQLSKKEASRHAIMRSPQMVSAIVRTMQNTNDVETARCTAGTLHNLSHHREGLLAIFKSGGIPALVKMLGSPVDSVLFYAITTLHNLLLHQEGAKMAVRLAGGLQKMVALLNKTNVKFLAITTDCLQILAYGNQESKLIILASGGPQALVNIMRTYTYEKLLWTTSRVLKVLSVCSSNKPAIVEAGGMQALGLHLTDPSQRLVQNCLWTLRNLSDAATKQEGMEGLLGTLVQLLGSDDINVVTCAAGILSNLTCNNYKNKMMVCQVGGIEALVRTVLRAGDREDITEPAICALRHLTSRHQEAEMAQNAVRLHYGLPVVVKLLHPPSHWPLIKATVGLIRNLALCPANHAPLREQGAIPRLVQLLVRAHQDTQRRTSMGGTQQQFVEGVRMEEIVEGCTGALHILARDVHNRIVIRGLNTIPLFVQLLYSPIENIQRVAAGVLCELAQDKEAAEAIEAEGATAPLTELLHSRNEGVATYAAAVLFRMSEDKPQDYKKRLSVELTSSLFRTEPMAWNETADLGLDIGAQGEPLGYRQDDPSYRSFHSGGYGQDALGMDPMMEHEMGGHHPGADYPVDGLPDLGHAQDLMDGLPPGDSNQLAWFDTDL

Binder	NanoBRET Abs IC50
Ac-[αAllylPro]D[tBuAla][B5(3)]DDAK(Octanoyl)FN[PyrS2][3Thi][Bta]Q-NH2 (staple 1-4, 4-11; not fully specified) [I-898]	> 20 µM
Ac-[αAllylPro]D[tBuAla][B5(3)]DDAK(AdamantC)FN[PyrS2(4)][3Thi][Bta]Q-NH2 (staple 1-4, 4-11; reading uncertain) [I-899]	> 20 µM
Ac-[αAllylPro]D[tBuAla][B5(3)]DDAK(Me3AdamantC)FN[PyrS2][3Thi][Bta]Q-NH2 (staple 1-4, 4-11) [I-900]	> 20 µM
Ac-[αAllylPro]D[tBuAla][B5(3)]DDAAFN[PyrS2][3Thi][Bta]QK(35CF3PhPr)-NH2 (staple 1-4, 4-11) [I-902]	21.2 µM
Ac-[αAllylPro]D[tBuAla][B5(3)]DDAAFN[PyrS2″][3Thi][Bta]QK(Propanoyl(3-(1-naphthyl)))-NH2 (staple 1-4, 4-11) [I-903]	7.8 µM
Ac-[αAllylPro]D[tBuAla][B5(3)]DDAAFN[PyrS2″][3Thi][Bta]QK(22PhPr)-NH2 (staple 1-4, 4-11) [I-904]	20 µM

Further lines, results first:

NanoBRET Abs IC50	Binder
31.6 µM	Ac-[αAllylPro]D[tBuAla][B5(3)]DDAAFN[PyrS2″][3Thi][Bta]QK(Morpholinoacetyl)-NH2 (staple 1-4, 4-11) [I-905]
26.5 µM	Ac-[αAllylPro]D[tBuAla][B5(3)]DDAAFN[PyrS2″][3Thi][Bta]QK(Acetyl(4-Me-piperazin-1-yl))-NH2 (staple 1-4, 4-11) [I-906]
27.8 µM	Ac-[αAllylPro]D[tBuAla][B5(3)]DDAAFN[PyrS2″][3Thi][Bta]QK(MeBipipAc)-NH2 (staple 1-4, 4-11) [I-907]
26 µM	Ac-[αAllylPro]D[tBuAla][B5(3)]DDAAFN[PyrS2″][3Thi][Bta]QK(4MePipBz)-NH2 (staple 1-4, 4-11) [I-908]
28.4 µM	Ac-[αAllylPro]D[tBuAla][B5(3)]DDAAFN[PyrS2″][3Thi][Bta]QK(MeMorphBz)-NH2 (staple 1-4, 4-11) [I-909]

biological target: T2, B-cat-Halo (UniProt P35222 2-781); test: cell-based or functional assay
T2 sequence (looked up): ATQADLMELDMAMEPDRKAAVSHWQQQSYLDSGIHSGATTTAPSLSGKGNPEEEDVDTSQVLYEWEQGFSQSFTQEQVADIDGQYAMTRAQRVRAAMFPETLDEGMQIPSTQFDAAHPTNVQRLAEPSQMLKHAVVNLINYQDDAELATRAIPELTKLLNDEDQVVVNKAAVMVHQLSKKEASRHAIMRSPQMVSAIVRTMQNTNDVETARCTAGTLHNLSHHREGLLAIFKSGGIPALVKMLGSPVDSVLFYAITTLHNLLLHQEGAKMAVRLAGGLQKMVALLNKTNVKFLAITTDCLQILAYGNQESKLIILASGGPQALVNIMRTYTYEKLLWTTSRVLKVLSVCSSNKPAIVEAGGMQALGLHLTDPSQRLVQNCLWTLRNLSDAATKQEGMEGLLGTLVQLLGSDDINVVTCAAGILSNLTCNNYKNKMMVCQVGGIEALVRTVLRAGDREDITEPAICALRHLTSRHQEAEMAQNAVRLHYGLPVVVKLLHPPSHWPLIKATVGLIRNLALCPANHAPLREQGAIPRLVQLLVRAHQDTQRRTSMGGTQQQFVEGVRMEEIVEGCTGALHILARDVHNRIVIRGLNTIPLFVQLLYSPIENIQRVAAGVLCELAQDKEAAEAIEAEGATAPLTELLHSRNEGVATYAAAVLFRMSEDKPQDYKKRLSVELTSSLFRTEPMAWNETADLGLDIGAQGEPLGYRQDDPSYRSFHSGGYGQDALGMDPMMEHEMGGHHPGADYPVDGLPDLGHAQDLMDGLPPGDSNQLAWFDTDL

Binder	NanoBRET Abs IC50
Ac-[αAllylPro]D[hLeu(5-Me)][B5(5)]D[TfeGA]AAFL[PyrS2″][3Thi][Bta]Q-NH2 (staple 1-4, 4-11) [I-1772]	6.8 µM
Ac-[αAllylPro]D[tBuAla][B5(5)]D[TfeGA]AAF[tBuAla][PyrS2″][3Thi][Bta]Q-NH2 (staple 1-4, 4-11) [I-1773]	8.6 µM
Ac-[αAllylPro]D[tBuAla][B5(5)]D[TfeGA″]AAF[Cha][PyrS2(4)][3Thi][Bta]Q-NH2 (staple 1-4, 4-11; not fully specified; reading uncertain) [I-1774]	8.9 µM
